From article PMC4432651, “Dynamic interplay between catalytic and lectin domains of GalNAc-transferases modulates protein O-glycosylation” (Nature Communications, 2015)

Biological target: polypeptide N-acetylgalactosaminyltransferase 2 (GalNAc-T2), K75-Q571 (UniProt Q10471)
Assay: other fluorescence titration; tryptophan fluorescence quenching, 25 °C, GalNAc-T2 at 1 μM, peptides 1 to 500 μM, 25 mM Tris, 150 mM NaCl, pH 7.5; without UDP/Mn+2; single binding site model

Chain of polypeptide N-acetylgalactosaminyltransferase 2 (GalNAc-T2), K75-Q571 (Q10471 75-571): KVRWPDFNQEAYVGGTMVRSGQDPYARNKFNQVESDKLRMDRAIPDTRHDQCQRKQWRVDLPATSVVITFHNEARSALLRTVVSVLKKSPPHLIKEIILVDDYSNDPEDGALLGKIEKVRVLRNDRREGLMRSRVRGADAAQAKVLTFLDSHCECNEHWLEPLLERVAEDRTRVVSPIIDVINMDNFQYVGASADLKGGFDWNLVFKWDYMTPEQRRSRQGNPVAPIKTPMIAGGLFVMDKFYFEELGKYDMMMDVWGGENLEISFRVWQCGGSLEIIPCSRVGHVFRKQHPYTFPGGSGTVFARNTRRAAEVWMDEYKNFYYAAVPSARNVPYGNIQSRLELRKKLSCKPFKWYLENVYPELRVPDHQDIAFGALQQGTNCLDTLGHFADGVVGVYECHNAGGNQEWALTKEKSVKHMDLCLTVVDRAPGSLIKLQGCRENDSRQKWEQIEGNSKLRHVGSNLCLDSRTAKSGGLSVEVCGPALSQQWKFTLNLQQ

Question: How did the fold change of Kd, without UDP/Mn+2 against with UDP/Mn+2 turn out when MUC5AC peptide (naked) was run?
Answer: The fold change of Kd, without UDP/Mn+2 against with UDP/Mn+2 was 4 fold.
